From PMC12301659

Key:
[1] = target: separase [also known as separin (ESPL1)], endogenous [human (endogenous in HCT116)]; assay: proximity ligation assay (PLA); conditions: HCT116 cells stably expressing GFP–Centrin2; antibodies against HA and separase; parent: 44; read off a plot
[2] = target: 14-3-3ε (endogenous) [human (endogenous in HCT116)]; assay: proximity ligation assay (PLA); conditions: HCT116 cells stably expressing GFP–Centrin2; antibodies to the Myc epitope tag and 14-3-3ε; parent: 52; read off a plot

Substance | response (puncta per cell) [1] | response (puncta per cell) [2]
HA-tagged 14-3-3ε WT mutant E134A [not stated] / separase [also known as separin (ESPL1)], endogenous [human (endogenous in HCT116)] chain 1 E134A | 8 | 
Myc-tagged separase (FL) mutant S1501A [human] / 14-3-3ε (endogenous) [human (endogenous in HCT116)] chain 1 S1501A |  | 0.5
Myc-tagged separase (FL) mutant T1363A [human] / 14-3-3ε (endogenous) [human (endogenous in HCT116)] chain 1 T1363A |  | 45

Results, then the substance that gave them:

response (puncta per cell) [1] | response (puncta per cell) [2] | Substance
63 |  | HA-tagged 14-3-3ε WT mutant D127A [not stated] / separase [also known as separin (ESPL1)], endogenous [human (endogenous in HCT116)] chain 1 D127A
19 |  | HA-tagged 14-3-3ε WT mutant D127A; E134A [not stated] / separase [also known as separin (ESPL1)], endogenous [human (endogenous in HCT116)] chain 1 D127A, chain 1 E134A
